B1: Gamma-crystallin D (Homo sapiens), P07320 (parent)
chain: MGKITLYEDRGFQGRHYECSSDHPNLQPYLSRCNSARVDSGCWMLYEQPNYSGLQYFLRRGDYADHQQWMGLSDSVRSCRLIPHSGSHRIRLYEREDYRGQMIEFTEDCSCLQDRFRFNEIHSLNVLEGSWVLYELSNYRGRQYLLMPGDYRRYQDWGATNARVGSLRRVIDFS
partner: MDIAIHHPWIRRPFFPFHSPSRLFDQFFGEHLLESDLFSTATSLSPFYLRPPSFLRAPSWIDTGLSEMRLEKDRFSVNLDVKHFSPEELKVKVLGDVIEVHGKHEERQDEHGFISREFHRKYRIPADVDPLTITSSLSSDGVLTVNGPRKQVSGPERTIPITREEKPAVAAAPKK
B2: Alpha-crystallin B chain (Mus musculus), P23927 (parent)
chain: B1 partner
B3: Gamma-crystallin D (Homo sapiens), P07320 (parent)
chain: B1 chain
partner: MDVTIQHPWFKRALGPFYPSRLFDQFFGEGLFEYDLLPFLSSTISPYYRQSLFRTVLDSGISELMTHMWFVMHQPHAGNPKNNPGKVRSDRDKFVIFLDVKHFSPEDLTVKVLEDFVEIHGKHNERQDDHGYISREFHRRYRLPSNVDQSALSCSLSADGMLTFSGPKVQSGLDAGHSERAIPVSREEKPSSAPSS

Variants of: B1
Conditions: with cryab_mouse Cryab, P23927

| Variant | effect of a mutation on the interaction |
| --- | --- |
| I4F | increasing interaction |
| V76D | increasing interaction |

Variants of: B2
Conditions: with crgd_human CRYGD, P07320

| Variant | effect of a mutation on the interaction |
| --- | --- |
| S19D | increasing interaction |
| S59D | increasing interaction |
| S45D | increasing interaction |

Variants of: B3
Conditions: with cryaa_rat Cryaa

| Variant | effect of a mutation on the interaction |
| --- | --- |
| I4F | increasing interaction |
| V76D | increasing interaction |

Source: IntAct's records for PubMed 22289178
